# Columns and labels:
# [1] = Appearance (visual analysis, illuminator method); assay type: physicochemical
# Method: Appearance of the insulin/rHuPH20 formulations was determined by qualitative visual analysis of the insulin/rHuPH20 solution in a type I glass vial. The evaluation of the coloration and clarity of the solution was determined by comparison to that of USP (or equivalent) sterile water for irrigation (SWFI). The aqueous solution was determined to be clear if its clarity was the same as that of the SWFI. The aqueous solution was determined to be colorless if it had the appearance of the SWFI. Vials were tested at room temperature and care was taken not to cause unnecessary turbulence and/or air bubbles in the solutions while swirling and/or inverting. If necessary, vials were wiped with non-shedding or lint-free wipes and 70% ethanol prior to testing. The procedure was as follows: A directional light source with a 150 W or greater lamp was turned on. The samples were prepared in a hood. Samples to be tested were gently inverted to ensure homogeneity prior to transferring >0.5 mL using aseptic technique to a Type 1 glass vial for testing. A SWFI sample was prepared in the same way. […] Color, clarity and the presence and extent of any visible particles and/or foreign matter were recorded. […]
# In this method, the degree of clarity and coloration of liquids were evaluated to ensure (visually) product quality against the applicable appearance specifications. […]
# [2] = RP-HPLC: insulin percent purity; assay type: physicochemical; details: for Percent of insulin main peak: 2-8° C.
# Method: For insulin, 20 μL was injected for each HPLC run.
# The data were processed using Design-Expert® 7.0 (StatEase) and the “historical data” feature. Insulin percent purity was expressed as the percent of main insulin versus all insulin species.
substance,measurement,setting,value
"regular insulin: mature human insulin, SEQ ID NOS: 103 and 104",time tested without precipitates,"[1]; NaCl 80 mM or less, pH 7.6",greater than 15 months
same,time to form precipitates,"[1]; NaCl greater than 80 mM, pH 7.0",≤ 1 week
same,Percent of insulin main peak,"[2]; 50 mM NaCl, pH 7.0, 0 months",97.64%
same,Percent of insulin main peak,"[2]; 50 mM NaCl, pH 7.0, 0.25 months",97.59%
same,Percent of insulin main peak,"[2]; 50 mM NaCl, pH 7.0, 0.5 months",97.50%
same,Percent of insulin main peak,"[2]; 50 mM NaCl, pH 7.0, 1 month",97.44%
same,Percent of insulin main peak,"[2]; 50 mM NaCl, pH 7.0, 3 months",97.24%
same,Percent of insulin main peak,"[2]; 50 mM NaCl, pH 7.0, 5 months",97.73%
same,Percent of insulin main peak,"[2]; 50 mM NaCl, pH 7.0, 9 months",97.20%
same,Percent of insulin main peak,"[2]; 50 mM NaCl, pH 7.2, 0 months",97.64%
same,Percent of insulin main peak,"[2]; 50 mM NaCl, pH 7.2, 0.25 months",97.59%
same,Percent of insulin main peak,"[2]; 50 mM NaCl, pH 7.2, 0.5 months",97.56%
same,Percent of insulin main peak,"[2]; 50 mM NaCl, pH 7.2, 1 month",97.46%
same,Percent of insulin main peak,"[2]; 50 mM NaCl, pH 7.2, 3 months",97.47%
same,Percent of insulin main peak,"[2]; 50 mM NaCl, pH 7.2, 5 months",97.75%
same,Percent of insulin main peak,"[2]; 50 mM NaCl, pH 7.2, 9 months",97.27%
same,Percent of insulin main peak,"[2]; 50 mM NaCl, pH 7.4, 0 months",97.58%
same,Percent of insulin main peak,"[2]; 50 mM NaCl, pH 7.4, 0.25 months",97.54%
same,Percent of insulin main peak,"[2]; 50 mM NaCl, pH 7.4, 0.5 months",97.48%
same,Percent of insulin main peak,"[2]; 50 mM NaCl, pH 7.4, 1 month",97.47%
same,Percent of insulin main peak,"[2]; 50 mM NaCl, pH 7.4, 3 months",97.45%
same,Percent of insulin main peak,"[2]; 50 mM NaCl, pH 7.4, 5 months",97.74%
same,Percent of insulin main peak,"[2]; 50 mM NaCl, pH 7.4, 9 months",97.27%
same,Percent of insulin main peak,"[2]; 50 mM NaCl, pH 7.6, 0 months",97.65%
same,Percent of insulin main peak,"[2]; 50 mM NaCl, pH 7.6, 0.25 months",97.58%
same,Percent of insulin main peak,"[2]; 50 mM NaCl, pH 7.6, 0.5 months",97.33%
same,Percent of insulin main peak,"[2]; 50 mM NaCl, pH 7.6, 1 month",97.44%
same,Percent of insulin main peak,"[2]; 50 mM NaCl, pH 7.6, 3 months",97.35%
same,Percent of insulin main peak,"[2]; 50 mM NaCl, pH 7.6, 5 months",97.66%
same,Percent of insulin main peak,"[2]; 50 mM NaCl, pH 7.6, 9 months",97.34%
same,Percent of insulin main peak,"[2]; 80 mM NaCl, pH 7.0, 0 months",97.65%
same,Percent of insulin main peak,"[2]; 80 mM NaCl, pH 7.0, 0.25 months",97.50%
same,Percent of insulin main peak,"[2]; 80 mM NaCl, pH 7.0, 0.5 months",97.30%
same,Percent of insulin main peak,"[2]; 80 mM NaCl, pH 7.0, 1 month",97.20%
same,Percent of insulin main peak,"[2]; 80 mM NaCl, pH 7.0, 5 months",97.81%
same,Percent of insulin main peak,"[2]; 80 mM NaCl, pH 7.0, 9 months",96.18%
same,Percent of insulin main peak,"[2]; 80 mM NaCl, pH 7.2, 0 months",97.57%
same,Percent of insulin main peak,"[2]; 80 mM NaCl, pH 7.2, 0.25 months",97.59%
same,Percent of insulin main peak,"[2]; 80 mM NaCl, pH 7.2, 0.5 months",97.30%
same,Percent of insulin main peak,"[2]; 80 mM NaCl, pH 7.2, 1 month",97.45%
same,Percent of insulin main peak,"[2]; 80 mM NaCl, pH 7.2, 3 months",97.34%
same,Percent of insulin main peak,"[2]; 80 mM NaCl, pH 7.2, 5 months",97.64%
same,Percent of insulin main peak,"[2]; 80 mM NaCl, pH 7.4, 0 months",97.56%
same,Percent of insulin main peak,"[2]; 80 mM NaCl, pH 7.4, 0.25 months",97.61%
same,Percent of insulin main peak,"[2]; 80 mM NaCl, pH 7.4, 0.5 months",97.51%
same,Percent of insulin main peak,"[2]; 80 mM NaCl, pH 7.4, 1 month",97.43%
same,Percent of insulin main peak,"[2]; 80 mM NaCl, pH 7.4, 3 months",97.43%
same,Percent of insulin main peak,"[2]; 80 mM NaCl, pH 7.4, 5 months",97.75%
same,Percent of insulin main peak,"[2]; 80 mM NaCl, pH 7.4, 9 months",97.29%
same,Percent of insulin main peak,"[2]; 80 mM NaCl, pH 7.6, 0 months",97.63%
same,Percent of insulin main peak,"[2]; 80 mM NaCl, pH 7.6, 0.25 months",97.62%
same,Percent of insulin main peak,"[2]; 80 mM NaCl, pH 7.6, 0.5 months",97.52%
same,Percent of insulin main peak,"[2]; 80 mM NaCl, pH 7.6, 1 month",97.37%
same,Percent of insulin main peak,"[2]; 80 mM NaCl, pH 7.6, 3 months",97.64%
same,Percent of insulin main peak,"[2]; 80 mM NaCl, pH 7.6, 5 months",97.67%
same,Percent of insulin main peak,"[2]; 80 mM NaCl, pH 7.6, 9 months",97.31%
same,Percent of insulin main peak,"[2]; 110 mM NaCl, pH 7.0, 0 months",97.64%
same,Percent of insulin main peak,"[2]; 110 mM NaCl, pH 7.0, 0.25 months",97.31%
same,Percent of insulin main peak,"[2]; 110 mM NaCl, pH 7.0, 0.5 months",97.57%
same,Percent of insulin main peak,"[2]; 110 mM NaCl, pH 7.0, 1 month",96.64%
same,Percent of insulin main peak,"[2]; 110 mM NaCl, pH 7.0, 3 months",96.10%
same,Percent of insulin main peak,"[2]; 110 mM NaCl, pH 7.0, 5 months",97.79%
same,Percent of insulin main peak,"[2]; 110 mM NaCl, pH 7.2, 0 months",97.62%
same,Percent of insulin main peak,"[2]; 110 mM NaCl, pH 7.2, 0.25 months",97.46%
same,Percent of insulin main peak,"[2]; 110 mM NaCl, pH 7.2, 0.5 months",97.35%
same,Percent of insulin main peak,"[2]; 110 mM NaCl, pH 7.2, 3 months",97.49%
same,Percent of insulin main peak,"[2]; 110 mM NaCl, pH 7.2, 5 months",97.61%
same,Percent of insulin main peak,"[2]; 110 mM NaCl, pH 7.2, 9 months",95.91%
same,Percent of insulin main peak,"[2]; 110 mM NaCl, pH 7.4, 0 months",97.65%
same,Percent of insulin main peak,"[2]; 110 mM NaCl, pH 7.4, 0.25 months",97.58%
same,Percent of insulin main peak,"[2]; 110 mM NaCl, pH 7.4, 0.5 months",97.39%
same,Percent of insulin main peak,"[2]; 110 mM NaCl, pH 7.4, 1 month",97.36%
same,Percent of insulin main peak,"[2]; 110 mM NaCl, pH 7.4, 3 months",97.36%
same,Percent of insulin main peak,"[2]; 110 mM NaCl, pH 7.4, 5 months",97.79%
same,Percent of insulin main peak,"[2]; 110 mM NaCl, pH 7.4, 9 months",96.91%
same,Percent of insulin main peak,"[2]; 110 mM NaCl, pH 7.6, 0 months",97.58%
same,Percent of insulin main peak,"[2]; 110 mM NaCl, pH 7.6, 0.25 months",97.57%
same,Percent of insulin main peak,"[2]; 110 mM NaCl, pH 7.6, 0.5 months",97.60%
same,Percent of insulin main peak,"[2]; 110 mM NaCl, pH 7.6, 1 month",97.52%
same,Percent of insulin main peak,"[2]; 110 mM NaCl, pH 7.6, 3 months",97.42%
same,Percent of insulin main peak,"[2]; 110 mM NaCl, pH 7.6, 5 months",97.61%
same,Percent of insulin main peak,"[2]; 110 mM NaCl, pH 7.6, 9 months",97.31%
same,Percent of insulin main peak,"[2]; 140 mM NaCl, pH 7.0, 0 months",97.65%
same,Percent of insulin main peak,"[2]; 140 mM NaCl, pH 7.0, 0.25 months",97.15%
same,Percent of insulin main peak,"[2]; 140 mM NaCl, pH 7.0, 1 month",96.39%
same,Percent of insulin main peak,"[2]; 140 mM NaCl, pH 7.0, 3 months",96.16%
same,Percent of insulin main peak,"[2]; 140 mM NaCl, pH 7.0, 9 months",95.17%
same,Percent of insulin main peak,"[2]; 140 mM NaCl, pH 7.2, 0 months",97.56%
same,Percent of insulin main peak,"[2]; 140 mM NaCl, pH 7.2, 0.25 months",97.37%
same,Percent of insulin main peak,"[2]; 140 mM NaCl, pH 7.2, 1 month",96.62%
same,Percent of insulin main peak,"[2]; 140 mM NaCl, pH 7.2, 3 months",96.60%
same,Percent of insulin main peak,"[2]; 140 mM NaCl, pH 7.2, 9 months",95.49%
same,Percent of insulin main peak,"[2]; 140 mM NaCl, pH 7.4, 0 months",97.64%
same,Percent of insulin main peak,"[2]; 140 mM NaCl, pH 7.4, 0.25 months",97.57%
same,Percent of insulin main peak,"[2]; 140 mM NaCl, pH 7.4, 0.5 months",97.33%
same,Percent of insulin main peak,"[2]; 140 mM NaCl, pH 7.4, 1 month",97.23%
same,Percent of insulin main peak,"[2]; 140 mM NaCl, pH 7.4, 3 months",97.38%
same,Percent of insulin main peak,"[2]; 140 mM NaCl, pH 7.4, 5 months",97.73%
same,Percent of insulin main peak,"[2]; 140 mM NaCl, pH 7.4, 9 months",96.10%
same,Percent of insulin main peak,"[2]; 140 mM NaCl, pH 7.6, 0 months",97.64%
same,Percent of insulin main peak,"[2]; 140 mM NaCl, pH 7.6, 0.25 months",97.61%
same,Percent of insulin main peak,"[2]; 140 mM NaCl, pH 7.6, 0.5 months",97.41%
same,Percent of insulin main peak,"[2]; 140 mM NaCl, pH 7.6, 1 month",97.51%
same,Percent of insulin main peak,"[2]; 140 mM NaCl, pH 7.6, 3 months",97.35%
same,Percent of insulin main peak,"[2]; 140 mM NaCl, pH 7.6, 5 months",97.56%
same,Percent of insulin main peak,"[2]; 140 mM NaCl, pH 7.6, 9 months",97.07%
same,insulin main peak percentage,"[2]; long term storage at 2-8° C., […] m-cresol, 0.2% phenol",about 97%
